What was measured:
human ENPP3 on cells [1] = biological target: T1, human ENPP3 on cells (human, UniProt O14638 1-875); experiment: cell-based or functional assay
T1 sequence (looked up): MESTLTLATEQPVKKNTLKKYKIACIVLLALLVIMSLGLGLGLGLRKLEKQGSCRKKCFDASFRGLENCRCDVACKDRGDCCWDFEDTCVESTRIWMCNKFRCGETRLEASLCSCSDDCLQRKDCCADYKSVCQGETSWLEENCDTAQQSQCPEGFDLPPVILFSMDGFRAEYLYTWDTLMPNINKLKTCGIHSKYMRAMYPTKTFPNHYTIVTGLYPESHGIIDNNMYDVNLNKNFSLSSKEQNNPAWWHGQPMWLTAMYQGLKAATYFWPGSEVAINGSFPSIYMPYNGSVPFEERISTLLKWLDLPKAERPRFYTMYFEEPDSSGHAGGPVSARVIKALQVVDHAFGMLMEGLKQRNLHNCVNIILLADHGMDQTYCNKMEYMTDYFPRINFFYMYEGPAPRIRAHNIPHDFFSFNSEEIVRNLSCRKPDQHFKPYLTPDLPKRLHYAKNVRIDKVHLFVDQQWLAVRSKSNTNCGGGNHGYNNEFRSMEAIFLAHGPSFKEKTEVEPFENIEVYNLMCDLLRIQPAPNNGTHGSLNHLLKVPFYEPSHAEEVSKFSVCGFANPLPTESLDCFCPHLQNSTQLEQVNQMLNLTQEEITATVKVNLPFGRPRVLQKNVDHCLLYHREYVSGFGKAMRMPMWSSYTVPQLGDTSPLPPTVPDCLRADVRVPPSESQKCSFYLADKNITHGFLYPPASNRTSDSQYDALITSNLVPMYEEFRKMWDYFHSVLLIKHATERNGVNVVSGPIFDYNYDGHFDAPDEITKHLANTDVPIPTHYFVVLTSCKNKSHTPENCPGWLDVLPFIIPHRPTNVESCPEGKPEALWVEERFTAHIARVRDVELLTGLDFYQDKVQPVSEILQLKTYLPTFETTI

human ENPP3 on cells [2] = biological target: T1, human ENPP3 on cells; experiment: flow cytometry on VMRCRCW cells
human CD3 on T cells = biological target: T2, human CD3 on T cells (human, UniProt P07766 23-207); experiment: flow cytometry on human T cells, donor 110044049
T2 construct: on T cells it stands in the TCR-CD3 complex; also called human T cells; T cells isolated from healthy human donors
T2 sequence (P07766 23-207 limits assumed): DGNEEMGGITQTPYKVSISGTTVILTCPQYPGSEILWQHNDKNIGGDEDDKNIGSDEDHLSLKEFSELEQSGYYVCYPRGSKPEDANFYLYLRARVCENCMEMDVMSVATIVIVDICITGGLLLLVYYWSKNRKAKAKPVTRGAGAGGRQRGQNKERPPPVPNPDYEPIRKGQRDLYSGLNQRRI

human ENPP3 = biological target: T3, human ENPP3 (human, UniProt O14638 46-875, limits assumed); experiment: affinity; method and construct not stated
T3 construct: neither the construct nor the method is stated; also called ectonucleotide pyrophosphatase/phosphodiesterase family member 3
T3 sequence (looked up): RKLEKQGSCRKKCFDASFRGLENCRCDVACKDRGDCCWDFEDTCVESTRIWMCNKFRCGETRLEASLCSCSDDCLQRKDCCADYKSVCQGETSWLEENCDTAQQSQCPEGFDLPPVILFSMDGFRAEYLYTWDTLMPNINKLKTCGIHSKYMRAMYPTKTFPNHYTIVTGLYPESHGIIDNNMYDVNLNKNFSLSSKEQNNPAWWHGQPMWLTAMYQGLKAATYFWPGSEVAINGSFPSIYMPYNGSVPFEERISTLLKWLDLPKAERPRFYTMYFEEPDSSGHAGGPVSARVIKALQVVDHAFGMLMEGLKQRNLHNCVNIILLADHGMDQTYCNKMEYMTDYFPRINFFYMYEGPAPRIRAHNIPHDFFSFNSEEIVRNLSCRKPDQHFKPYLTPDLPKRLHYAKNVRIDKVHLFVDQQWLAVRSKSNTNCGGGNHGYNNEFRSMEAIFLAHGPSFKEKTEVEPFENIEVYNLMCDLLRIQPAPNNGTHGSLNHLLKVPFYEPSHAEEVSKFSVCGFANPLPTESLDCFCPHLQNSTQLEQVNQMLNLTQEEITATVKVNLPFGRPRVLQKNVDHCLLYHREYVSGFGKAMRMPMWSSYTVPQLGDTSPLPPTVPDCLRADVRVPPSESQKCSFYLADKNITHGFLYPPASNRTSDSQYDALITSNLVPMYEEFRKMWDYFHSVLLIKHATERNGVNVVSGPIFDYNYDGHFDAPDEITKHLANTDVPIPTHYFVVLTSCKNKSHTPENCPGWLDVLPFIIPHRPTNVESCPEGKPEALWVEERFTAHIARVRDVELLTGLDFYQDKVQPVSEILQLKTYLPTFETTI

B1: NPP3B815 (bispecific antibody, human IgG1, kappa, L234A L235A)
heavy 1: EIVLTQSPATLSASPGERVTLSCSASSSVSYMNWYQQKPGCAPRRWIYDSSKLASGVPARFSGSGSGRDYTLTISSLEPEDFAVYYCQQWSRNPPTFGGGTKVEIKGGGSGGSGGCPPCGGSGGQVQLVQSGAEVKKPGSSVKVSCKASGYTFTRSTMHWVKQAPGQGLEWIGYINPSSAYTNYNQKFQGRVTLTADKSTSTAYMELSSLRSEDTAVYYCASPQVHYDYAGFPYWGCGTLVTVSSEPKSSDKTHTCPPCPAPEAAGGPSVFLFPPKPKDTLMISRTPEVTCVVVSVSHEDPEVKFNWYVDGVEVHNAKTKPREEQYNSTYRVVSVLTVLHQDWLNGKEYKCKVSNKALPAPIEKTISKAKGQPREPQVYTLPPSREEMTKNQVSLWCLVKGFYPSDIAVEWESNGQPENNYKTTPPVLDSDGSFFLYSKLTVDKSRWQQGNVFSCSVMHEALHNHYTQKSLSLSPGK
heavy 2: EVQLVESGGGRVKPGGSLRLSCAASGFTFSDYSMNWVRQAPGKGLEWVSSISSISSYVKYADSVKGRFTMSRDNAKNSLFLQMNSLRDEDMAVYYCARGHYFDYWGQGTLVTVSSASTKGPSVFPLAPSSKSTSGGTAALGCLVKDYFPEPVTVSWNSGALTSGVHTFPAVLQSSGLYSLSSVVTVPSSSLGTQTYICNVNHKPSNTKVDKKVEPKSCDKTHTCPPCPAPEAAGGPSVFLFPPKPKDTLMISRTPEVTCVVVSVSHEDPEVKFNWYVDGVEVHNAKTKPREEQYNSTYRVVSVLTVLHQDWLNGKEYKCKVSNKALPAPIEKTISKAKGQPREPQVYTLPPSREEMTKNQVSLSCAVKGFYPSDIAVEWESNGQPENNYKTTPPVLDSDGSFFLVSKLTVDKSRWQQGNVFSCSVMHEALHNRFTQKSLSLSPGK
light: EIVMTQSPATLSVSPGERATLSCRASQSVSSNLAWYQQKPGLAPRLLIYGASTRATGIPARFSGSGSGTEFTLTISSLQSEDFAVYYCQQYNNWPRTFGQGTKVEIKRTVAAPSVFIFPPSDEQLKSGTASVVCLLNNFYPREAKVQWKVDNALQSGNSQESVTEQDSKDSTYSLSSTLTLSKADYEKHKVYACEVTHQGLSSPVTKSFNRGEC
notes: HC2 carries the NPP3B56 Fab and the hole T366S, L368A, Y407V; Fc with L234A, L235A, D265S; The CPPC linker cysteines form disulfides with engineered Cys at L42 and H105 (Chothia); also called NPP3B56×CD3B2030-N106A; ENPP3×CD3 (NPP3B815)
Human ENPP3 on cells [1]
  T-cell activation (Flow Cytometry) EC50; A704; E:T 3:1: 11 pM
  T-cell activation (Flow Cytometry) EC50; HepG2; E:T 3:1: 41 pM
  T-cell activation (Flow Cytometry) EC50; VMRCRCW; E:T 3:1: 18 pM
  Tumor cell killing (Incucyte) EC50; A704; E:T 3:1: 30 pM
  Tumor cell killing (Incucyte) EC50; HepG2; E:T 3:1: 530 pM
  Tumor cell killing (Incucyte) EC50; TUHR4TKB; E:T 3:1: 50 pM
  Tumor cell killing (Incucyte) EC50; TUHR10TKB; E:T 3:1: 20 pM
  Tumor cell killing (Incucyte) EC50; VMRCRCW; E:T 3:1: 130 pM
Human ENPP3 on cells [2]
  EC50: 500 pM
Human CD3 on T cells
  EC50: 188000 pM
Human ENPP3
  Kd: 920 pM
